Results taken from patent US20240270846A1 (published 2024).
Residue numbers refer to the chain shown, from its start.

B1: CE115HA000 H chain altered form E61A (antibody, human IgG1, kappa, L234A L235A, N297A, name in Kabat numbering)
heavy: QVQLVESGGGVVQPGRSLRLSCAASGFTFSNAWMHWVRQAPGKGLEWVAQIKAKSNNYATYYAASVKGRFTISRDDSKNSLYLQMNSLKTEDTAVYYCRYVHYGAYYGVDAWGQGTTVTVSSASTKGPSVFPLAPSSKSTSGGTAALGCLVKDYFPEPVTVSWNSGALTSGVHTFPAVLQSSGLYSLSSVVTVPSSSLGTQTYICNVNHKPSNTKVDKKVEPKSCDKTHTCPPCPAPEAAGGPSVFLFPPKPKDTLMISRTPEVTCVVVDVSHEDPEVKFNWYVDGVEVHNAKTKPREEQYASTYRVVSVLTVLHQDWLNGKEYKCKVSNKALPAPIEKTISKAKGQPREPQVYTLPPSRCELTKNQVSLSCAVKGFYPSDIAVEWESNGQPENNYKTTPPVLDSDGSFFLVSKLTVDKSRWQQGNVFSCSVMHEALHNHYTQKSLSLSPDYKDDDDK
chain: EPKSSDKTHTCPPCPAPELLGGPSVFLFPPKPKDTLMISRTPEVTCVVVDVSHEDPEVKFNWYVDGVEVHNAKTKPREEQYNSTYRVVSVLTVLHQDWLNGKEYKCKVSNKALPAPIEKTISKAKGQPREPQVCTLPPSRDELTKNQVSLWCLVKGFYPSDIAVEWESNGQPENNYKTTPPVLDSDGSFFLYSKLTVDKSRWQQGNVFSCSVMHEALHNRYTQKSLSLSP
light: DIVMTQSPLSLPVTPGEPASISCRSSQSLVHSNRNTYLHWYQQKPGQAPRLLIYKVSNRFSGVPDRFSGSGSGTDFTLKISRVEAEDVGVYYCGQGTQVPYTFGQGTKLEIKRTVAAPSVFIFPPSDEQLKSGTASVVCLLNNFYPREAKVQWKVDNALQSGNSQESVTEQDSKDSTYSLSSTLTLSKADYEKHKVYACEVTHQGLSSPVTKSFNRGEC
notes: one-arm antibody
B2: CE115HA000 H chain altered form E61D (antibody, human IgG1, kappa, L234A L235A, N297A, name in Kabat numbering)
heavy: B1 heavy with A64D
chain: B1 chain
light: B1 light
notes: one-arm antibody
B3: CE115HA000 H chain altered form E61P (antibody, human IgG1, kappa, L234A L235A, N297A, name in Kabat numbering)
heavy: B1 heavy with A64P
chain: B1 chain
light: B1 light
notes: one-arm antibody
B4: CE115HA000 H chain altered form E61Q (antibody, human IgG1, kappa, L234A L235A, N297A, name in Kabat numbering)
heavy: B1 heavy with A64Q
chain: B1 chain
light: B1 light
notes: one-arm antibody
B5: CE115HA000 H chain altered form F29V (antibody, human IgG1, kappa, L234A L235A, N297A, name in Kabat numbering)
heavy: B1 heavy with F29V, A64E
chain: B1 chain
light: B1 light
notes: one-arm antibody
B6: CE115HA000 H chain altered form H35D (antibody, human IgG1, kappa, L234A L235A, N297A, name in Kabat numbering)
heavy: B1 heavy with H35D, A64E
chain: B1 chain
light: B1 light
notes: one-arm antibody
B7: CE115HA000 H chain altered form H35E (antibody, human IgG1, kappa, L234A L235A, N297A, name in Kabat numbering)
heavy: B1 heavy with H35E, A64E
chain: B1 chain
light: B1 light
notes: one-arm antibody
B8: CE115HA000 H chain altered form H35F (antibody, human IgG1, kappa, L234A L235A, N297A, name in Kabat numbering)
heavy: B1 heavy with H35F, A64E
chain: B1 chain
light: B1 light
notes: one-arm antibody
B9: CE115HA000 H chain altered form H35G (antibody, human IgG1, kappa, L234A L235A, N297A, name in Kabat numbering)
heavy: B1 heavy with H35G, A64E
chain: B1 chain
light: B1 light
notes: one-arm antibody
B10: CE115HA000 H chain altered form H35I (antibody, human IgG1, kappa, L234A L235A, N297A, name in Kabat numbering)
heavy: B1 heavy with H35I, A64E
chain: B1 chain
light: B1 light
notes: one-arm antibody
B11: CE115HA000 H chain altered form H35K (antibody, human IgG1, kappa, L234A L235A, N297A, name in Kabat numbering)
heavy: B1 heavy with H35K, A64E
chain: B1 chain
light: B1 light
notes: one-arm antibody
B12: CE115HA000 H chain altered form H35L (antibody, human IgG1, kappa, L234A L235A, N297A, name in Kabat numbering)
heavy: B1 heavy with H35L, A64E
chain: B1 chain
light: B1 light
notes: one-arm antibody
B13: CE115HA000 H chain altered form H35M (antibody, human IgG1, kappa, L234A L235A, N297A, name in Kabat numbering)
heavy: B1 heavy with H35M, A64E
chain: B1 chain
light: B1 light
notes: one-arm antibody
B14: CE115HA000 H chain altered form H35N (antibody, human IgG1, kappa, L234A L235A, N297A, name in Kabat numbering)
heavy: B1 heavy with H35N, A64E
chain: B1 chain
light: B1 light
notes: one-arm antibody
B15: CE115HA000 H chain altered form H35Q (antibody, human IgG1, kappa, L234A L235A, N297A, name in Kabat numbering)
heavy: B1 heavy with H35Q, A64E
chain: B1 chain
light: B1 light
notes: one-arm antibody
B16: CE115HA000 H chain altered form H35R (antibody, human IgG1, kappa, L234A L235A, N297A, name in Kabat numbering)
heavy: B1 heavy with H35R, A64E
chain: B1 chain
light: B1 light
notes: one-arm antibody
B17: CE115HA000 H chain altered form H35S (antibody, human IgG1, kappa, L234A L235A, N297A, name in Kabat numbering)
heavy: B1 heavy with H35S, A64E
chain: B1 chain
light: B1 light
notes: one-arm antibody
B18: CE115HA000 H chain altered form H35T (antibody, human IgG1, kappa, L234A L235A, N297A, name in Kabat numbering)
heavy: B1 heavy with H35T, A64E
chain: B1 chain
light: B1 light
notes: one-arm antibody
B19: CE115HA000 H chain altered form H35V (antibody, human IgG1, kappa, L234A L235A, N297A, name in Kabat numbering)
heavy: B1 heavy with H35V, A64E
chain: B1 chain
light: B1 light
notes: one-arm antibody
B20: CE115HA000 H chain altered form H35W (antibody, human IgG1, kappa, L234A L235A, N297A, name in Kabat numbering)
heavy: B1 heavy with H35W, A64E
chain: B1 chain
light: B1 light
notes: one-arm antibody
B21: CE115HA000 H chain altered form H35Y (antibody, human IgG1, kappa, L234A L235A, N297A, name in Kabat numbering)
heavy: B1 heavy with H35Y, A64E
chain: B1 chain
light: B1 light
notes: one-arm antibody
B22: CE115HA000 H chain altered form I51D (antibody, human IgG1, kappa, L234A L235A, N297A, name in Kabat numbering)
heavy: B1 heavy with I51D, A64E
chain: B1 chain
light: B1 light
notes: one-arm antibody
B23: CE115HA000 H chain altered form I51E (antibody, human IgG1, kappa, L234A L235A, N297A, name in Kabat numbering)
heavy: B1 heavy with I51E, A64E
chain: B1 chain
light: B1 light
notes: one-arm antibody

What follows are binders tested against T1, CD3 epsilon homodimer protein (UniProt P07766 23-126) (assay: SPR Biacore T200, CD3 epsilon homodimer on chip, antibody as analyte;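 note: homodimer amine-coupled to a CM4 sensor chip, run at 25 °C in HBS-EP+ buffer, with kinetic parameters derived in Biacore T200 Evaluation Software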).
T1 construct: also called CD3 (CD3 epsilon)
T1 sequence (P07766 23-126): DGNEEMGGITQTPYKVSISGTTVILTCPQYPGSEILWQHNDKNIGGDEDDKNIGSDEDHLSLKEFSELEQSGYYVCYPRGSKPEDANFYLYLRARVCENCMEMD
Experimental: An appropriate amount of CD3 epsilon homodimer protein was immobilized onto Sensor chip CM4 (GE Healthcare Japan Corp.) by the amine coupling method. Then, the antibody having an appropriate concentration was injected thereto as an analyte and allowed to interact with the CD3 epsilon homodimer protein on the sensor chip. Then, the sensor chip was regenerated by the injection of 10 mmol/L glycine-HCl (pH 1.5). The assay was conducted at 25 degrees C., and HBS-EP+(GE Healthcare Japan Corp.) was used as a running buffer. […] Each parameter was calculated using Biacore T200 Evaluation Software (GE Healthcare Japan Corp.).
Specifically, when the amount of the antibody comprising CE115HA000 bound was defined as X and the amount of the H chain one-amino acid altered form bound was defined as Y, a value of Z (ratio of amounts bound)=Y/X was used.
With B1 the “KD ratio (KD of CE115HA000 / KD of altered form)” value was 0.94.
In the case of B2, the “KD ratio (KD of CE115HA000 / KD of altered form)” value is reported as 0.9.
In the case of B3, the “KD ratio (KD of CE115HA000 / KD of altered form)” value is reported as 0.82.
For B4, the “KD ratio (KD of CE115HA000 / KD of altered form)” value was 0.85.
For B5, the “KD ratio (KD of CE115HA000 / KD of altered form)” value was 2.94.
For B6, the “KD ratio (KD of CE115HA000 / KD of altered form)” value was 69.
In the case of B7, the “KD ratio (KD of CE115HA000 / KD of altered form)” value is reported as 70.3.
With B8 the “KD ratio (KD of CE115HA000 / KD of altered form)” value was 53.6.
With B9 the “KD ratio (KD of CE115HA000 / KD of altered form)” value was 45.8.
In the case of B10, the “KD ratio (KD of CE115HA000 / KD of altered form)” value is reported as 7.23.
B11 was tested, and the “KD ratio (KD of CE115HA000 / KD of altered form)” value was 14.4.
In the case of B12, the “KD ratio (KD of CE115HA000 / KD of altered form)” value is reported as 4.8.
B13 was tested, and the “KD ratio (KD of CE115HA000 / KD of altered form)” value was 3.98.
With B14 the “KD ratio (KD of CE115HA000 / KD of altered form)” value was 2.88.
For B15, the “KD ratio (KD of CE115HA000 / KD of altered form)” value was 4.8.
With B16 the “KD ratio (KD of CE115HA000 / KD of altered form)” value was 15400.
With B17 the “KD ratio (KD of CE115HA000 / KD of altered form)” value was 2.93.
B18 was tested, and the “KD ratio (KD of CE115HA000 / KD of altered form)” value was 4.4.
In the case of B19, the “KD ratio (KD of CE115HA000 / KD of altered form)” value is reported as 28.1.
For B20, the “KD ratio (KD of CE115HA000 / KD of altered form)” value was 50.4.
For B21, the “KD ratio (KD of CE115HA000 / KD of altered form)” value was 119000.
With B22 the “KD ratio (KD of CE115HA000 / KD of altered form)” value was 6.37.
B23 was tested, and the “KD ratio (KD of CE115HA000 / KD of altered form)” value was 0.84.
